Data from PMC3793637 (Nature, 2013).

B1: IR593.αCT (domain or fragment, human, UniProt P06213 28-620, looked up)
chain: HLYPGEVCPGMDIRNNLTRLHELENCSVIEGHLQILLMFKTRPEDFRDLSFPKLIMITDYLLLFRVYGLESLKDLFPNLTVIRGSRLFFNYALVIFEMVHLKELGLYNLMNITRGSVRIEKNNELCYLATIDWSRILDSVEDNYIVLNKDDNEECGDICPGTAKGKTNCPATVINGQFVERCWTHSHCQKVCPTICKSHGCTAEGLCCHSECLGNCSQPDDPTKCVACRNFYLDGRCVETCPPPYYHFQDWRCVNFSFCQDLHHKCKNSRRQGCHQYVIHNNKCIPECPSGYTMNSSNLLCTPCLGPCPKVCHLLEGEKTIDSVTSAQELRGCTVINGSLIINIRGGNNLAAELEANLGLIEEISGYLKIRRSYALVSLSFFRKLRLIRGETLEIGNYSFYALDNQNLRQLWDWSKHNLTITQGKLFFHYNPKLCLSEIHKMEEVSGTKGRQERNDIALKTNGDQASCENELLKFSYIRTSFDKILLRWEPYWPPDFRDLLGFMLFYKEAPYQNVTEFDGQDACGSNSWTVVDIDPPLRSNDPKSQNHPGWLMRGLKPWTQYAIFVKTLVTFSDERRTYGAKSDIIYVQTDATTFEDYLHNVVFVPRPS

Tests used:
[1] = target: insulin receptor site 1 (Homo sapiens) (UniProt P06213); conditions: cited from earlier work
insulin receptor site 1 (Homo sapiens), sequence (P06213 763-956): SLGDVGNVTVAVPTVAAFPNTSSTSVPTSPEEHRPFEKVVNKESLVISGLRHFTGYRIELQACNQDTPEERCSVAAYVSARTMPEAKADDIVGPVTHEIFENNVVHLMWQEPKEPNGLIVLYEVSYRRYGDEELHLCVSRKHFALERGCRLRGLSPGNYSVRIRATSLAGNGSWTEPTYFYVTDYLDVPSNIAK

[2] = target: insulin receptor site 2 (Homo sapiens) (UniProt P06213); conditions: cited from earlier work
insulin receptor site 2 (Homo sapiens), sequence (P06213 763-956): as above

crystal structure = target: the molecule itself; test: crystal structure
SEC = target: the molecule itself; test: SEC

Row | Molecule | Kd [1] | Kd [2] | stoichiometry N (crystal structure) | stoichiometry N (SEC)
1 | insulin (from UniProt P01308) | 6.4 nM | 400 nM | – | –
2 | B1 | – | – | 4 | 2
